# Measurements from patent US11407819B2, “Compositions and use of a fibrinogen binding motif present in EFB and COA for therapeutics and vaccines against Staphylococcus aureus” (priority 2013, dated 2022).
# “Also recorded” adds a separate entry of the source.
# Target: T1, rCoa-C binding to Fg (Homo sapiens, UniProt P02671+P02675+P02679)
# T1 construct: full-length human Fibrinogen (diluted in PBS, Enzyme research); purchased Enzyme research; host or cells: Coa probe made in E. coli BL21
# T1 sequence (P02671 20-629 limits assumed): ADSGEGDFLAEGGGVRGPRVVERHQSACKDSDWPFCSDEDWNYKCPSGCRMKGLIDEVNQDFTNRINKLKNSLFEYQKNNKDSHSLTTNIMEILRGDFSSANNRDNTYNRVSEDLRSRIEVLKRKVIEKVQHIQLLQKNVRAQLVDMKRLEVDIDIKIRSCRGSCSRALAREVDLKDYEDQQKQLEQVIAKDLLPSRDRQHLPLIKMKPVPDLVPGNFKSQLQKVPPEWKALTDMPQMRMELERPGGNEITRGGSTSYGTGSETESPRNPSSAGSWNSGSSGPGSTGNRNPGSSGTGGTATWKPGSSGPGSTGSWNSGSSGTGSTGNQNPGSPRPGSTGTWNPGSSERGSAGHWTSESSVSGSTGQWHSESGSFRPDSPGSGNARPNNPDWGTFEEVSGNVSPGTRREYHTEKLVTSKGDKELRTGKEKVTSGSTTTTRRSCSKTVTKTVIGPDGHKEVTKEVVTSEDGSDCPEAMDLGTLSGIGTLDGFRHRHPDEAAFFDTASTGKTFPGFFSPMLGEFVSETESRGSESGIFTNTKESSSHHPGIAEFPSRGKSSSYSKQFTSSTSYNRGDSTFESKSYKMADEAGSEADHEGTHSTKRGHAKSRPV
# T1 sequence (P02675 31-491): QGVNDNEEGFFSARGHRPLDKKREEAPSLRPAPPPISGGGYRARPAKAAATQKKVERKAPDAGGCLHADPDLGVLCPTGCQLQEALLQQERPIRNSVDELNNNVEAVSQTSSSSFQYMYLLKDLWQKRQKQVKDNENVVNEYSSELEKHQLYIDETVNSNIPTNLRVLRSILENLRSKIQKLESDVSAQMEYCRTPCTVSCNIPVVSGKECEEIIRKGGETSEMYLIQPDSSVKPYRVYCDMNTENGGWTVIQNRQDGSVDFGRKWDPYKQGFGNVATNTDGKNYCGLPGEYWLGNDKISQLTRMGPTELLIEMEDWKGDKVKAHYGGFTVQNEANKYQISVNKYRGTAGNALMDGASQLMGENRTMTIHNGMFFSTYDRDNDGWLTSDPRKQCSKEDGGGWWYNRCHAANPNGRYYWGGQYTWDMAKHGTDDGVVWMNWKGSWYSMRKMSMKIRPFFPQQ
# T1 sequence (P02679 27-453): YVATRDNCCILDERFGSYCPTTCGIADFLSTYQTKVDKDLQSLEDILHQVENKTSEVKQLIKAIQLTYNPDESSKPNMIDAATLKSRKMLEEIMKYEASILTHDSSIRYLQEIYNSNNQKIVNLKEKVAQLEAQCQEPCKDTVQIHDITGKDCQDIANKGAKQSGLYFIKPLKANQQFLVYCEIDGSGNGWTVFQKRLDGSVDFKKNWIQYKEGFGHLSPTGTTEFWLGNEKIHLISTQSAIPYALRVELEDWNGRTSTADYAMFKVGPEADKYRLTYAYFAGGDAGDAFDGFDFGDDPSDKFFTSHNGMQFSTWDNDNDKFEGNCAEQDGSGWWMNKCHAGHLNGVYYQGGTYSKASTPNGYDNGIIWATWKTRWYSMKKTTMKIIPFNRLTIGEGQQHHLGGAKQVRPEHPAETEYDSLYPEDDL
# Assay: Competition ELISA, peptide inhibition of rCoa-C (Coa 311-636) binding to Fg
# Conditions: increasing concentrations of peptides; 4 nM GST fusion protein
# Experimental: The residues in Coa-RI important for fibrinogen binding. FIG. 12A is a panel of coa-RI variant peptides were synthesized where each residue in the sequence is individually replaced with Ala (or Ser when the native a.a. is Ala). […] Wells were coated with 0.25 μg/well Fg. Labels -1, -2, -3, -4, -5, -6, -7, -8, -9, -10, -11, -12, -13, -14, -15, -16, -17, -18, -19, -20, -21, -22, -23, -24, -25, -26, -27 refer to Coa-RI-1, Coa-RI-2, Coa-RI-3, Coa-RI-4, Coa-RI-5, Coa-RI-6, Coa-RI-7, Coa-RI-8, Coa-RI-9, Coa-RI-10, Coa-RI-11, Coa-RI-12, Coa-RI-13, Coa-RI-14, Coa-RI-15, Coa-RI-16, Coa-RI-17, Coa-RI-18, Coa-RI-19, Coa-RI-20, Coa-RI-21, Coa-RI-22, Coa-RI-23, Coa-RI-24, Coa-RI-25, Coa-RI-26, Coa-RI-27, respectively. FIG. 12C is a comparison of amino acid sequence of Efb-O with Coa-RI. FIG. 12D is a Fg-binding register of tandem repeats in Coa. Bold letters denote the residues that are important for Fg binding. Binding of a fixed concentration of rCoa-C (2 nM) to immobilized Fg was determined in the presence of a fixed concentration of these peptides (50 uM) (FIG. 12B). […]
# FIG. 13A is a schematic presentation of Coa peptides. […] The Fg binding activities of these peptides were then investigated in a competition ELISA where the binding of rCoa-C to Fg coated microtiter wells were determined in the presence of increasing concentrations of peptide (FIG. 13B). […]
substance,measurement,value
"sCoa-RI: synthetic peptide, first 27 residues of repeat region, Coa 506-532 (ETNAYNVTTHANGQVSYGARPTYKKPS)",inhibition of rCoa-C binding to fibrinogen by overlapping Coa R peptides,some inhibitory activity; also recorded: most potent inhibitor
